Assay results reported in US20130149305A1 (UNIVERSITY OF MARYLAND BALTIMORE COUNTY, published 2013).

B1: recombinant mouse PD1-Fc fusion protein (Fc fusion, UniProt Q02242 25-167, looked up)
chain: LEVPNGPWRSLTFYPAWLTVSEGANATFTCSLSNWSEDLMLNWNRLSPSNQTEKQAAFCNGLSQPVQDARFQIIQLPNRHDFHMNILDTRRNDSGIYLCGAISLHPKAKIEESPGAELVVTERILETSTRYPSPSPKPEGRFQ
notes: Recombinant reagent; also called sPD1-Fc (mouse); soluble form of PD1; not shown: Fc part

Columns and labels:
[1] = target: human CD28 on PHA-activated T cells of PBMC (human) (UniProt P10747); assay: cell-based or functional assay
Chain of human CD28 on PHA-activated T cells of PBMC (human) (P10747 19-220): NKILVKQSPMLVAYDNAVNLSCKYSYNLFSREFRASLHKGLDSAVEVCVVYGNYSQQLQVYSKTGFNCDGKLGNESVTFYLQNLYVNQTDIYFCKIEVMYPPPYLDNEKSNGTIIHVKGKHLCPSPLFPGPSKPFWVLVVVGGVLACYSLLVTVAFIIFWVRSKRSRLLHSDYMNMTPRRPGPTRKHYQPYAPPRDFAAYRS

[2] = target: T1, mouse PDL1 co-expressed with mouse CD80 on CD80-transfected 4T1 cells (4T1/CD80) (mouse, UniProt Q9EP73 19-290; Q00609 38-306); assay: flow cytometry on IFN-gamma-treated cells, sPD1-Fc detected with anti-PD1-APC
T1 construct: whole, on cells; also called PDL1 on 4T1/CD80 cells; PDL1+CD80+ 4T1/CD80 cells
T1 sequence (Q9EP73 19-290, chain 1 of 2): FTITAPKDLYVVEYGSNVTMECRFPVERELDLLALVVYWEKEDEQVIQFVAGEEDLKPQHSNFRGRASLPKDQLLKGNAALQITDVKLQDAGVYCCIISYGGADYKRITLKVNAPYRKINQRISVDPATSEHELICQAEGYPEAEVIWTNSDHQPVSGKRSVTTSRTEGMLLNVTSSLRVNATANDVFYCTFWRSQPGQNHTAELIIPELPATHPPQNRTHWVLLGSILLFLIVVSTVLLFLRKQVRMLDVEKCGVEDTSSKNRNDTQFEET
T1 sequence (Q00609 38-306, chain 2 of 2): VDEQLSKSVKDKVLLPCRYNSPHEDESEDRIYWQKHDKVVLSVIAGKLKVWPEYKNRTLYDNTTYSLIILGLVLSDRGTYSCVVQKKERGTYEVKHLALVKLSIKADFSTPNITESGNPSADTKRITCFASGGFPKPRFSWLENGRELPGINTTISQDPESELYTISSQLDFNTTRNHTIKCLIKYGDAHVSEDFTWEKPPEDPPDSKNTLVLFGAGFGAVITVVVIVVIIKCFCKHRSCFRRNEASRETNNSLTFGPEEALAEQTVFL

Row | Molecule | increase of IFNγ production by PHA-activated PBMC, no tumor cells (ELISA) [1] [%] | binding result [2]
1 | soluble CD80-Fc: extracellular two domains of human CD80 fused to the Fc domain of IgG1 (Fc fusion) | 14 to 28 | –
2 | B1 | – | no binding
